This data set is described as follows: yeast display, Sf9 membrane polyspecificity reagent, FACS + sequencing; frameworks hold sequencing errors. An outline of the steps: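 Nanobodies came from a synthetic yeast display library in Saccharomyces cerevisiae BJ5465, induced with galactose for 36–48 hours and stained for 1 hour at 4 °C with 10% biotinylated, detergent-solubilized Sf9 membrane reagent. Cells were enriched on streptavidin microbeads and then FACS-sorted, with low and high (top ~1%) gates set on anti-HA fluorescence for expression and streptavidin fluorescence for reagent binding. Each polyreactivity label reflects the gate a clone came from. Genes were amplified by colony PCR, sequenced by MiSeq 2 × 250 and filtered by CDR length.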
On to “QVQLVESGGGLVQAGGSLRLSCAASGIIFFPYPMGWYRQAPGKERELVASINISDSSTYYADSVKGRFTISRDTAKNTVDLQMNSLKPEDTAVYYCAADNRGDSWYWHGYWGQGTQVSVSS”, for which the “polyreactivity (PSR sort gate)” value is “low polyreactivity”.
For “QVQLVESAGGLVQAGASLRLSCAASGLIYRKYSMGWYRQAPGKERELVAAISSGGDTNYADSVKGLFTISRDNAKNTVYLQMNSLKPEDTAVYYCNADRKYWYGIALEYWGQGTQVTVSS” the value was “high polyreactivity”; for “QVQLVESGGGLVQAGCSLRLSCAASGFTFGDNAMGWYRQAPGKDRELDARITGDGSTYYADSVKGRFTISRDNAKNTVYLQTNSLKPEDTAVYYCAADYSPRYTQIEYGYWGQGTQVTVSS”, “low polyreactivity”.
The same measure for “QVQLVESGGGLVQAGGSLRLSCAASGSISYVYAMGWYRQAPGKERELFAAISYSDGSTYYADSVKGRFTISRDNAKNTVYLQMISLKPEDTAVYYCAADAVYPFPYYWEYYYWGQGTQVTVSS”: “high polyreactivity”; for “QVQLVESGGGLVQAGGSLRLRCAASGSTIVQYDMGWYRQAPGKERELVAAISRTGSTYYADSVKGRFTISRDNAKNTVYLQINSLKPEDTAVYYCNAEFWRGTYRFGYWGQGTQVTVSS”: “low polyreactivity”.
The same measure for “QVQLVESGGGLVQAGGSLRLSCAASGRIFEWNAMGWYRQAPGKERELVAAISWSGGSTYYADSVKGRFTISRDNAKNTVYLQMNSLKPEDTAVYYCAALTYRWSARDYWGQGTQVTVSS”: “high polyreactivity”.
As for “QVQLVVSGGGLVQAGGSLRLSCAASGSTLVIYAMGGYRQAPGKERELVAAIRRTGGSTYYADSVKGRFTISRDNAKTTVDLQKNSLKPEDTAVYYCAKRSYTGYEYWGQGTQETVSS”, the “polyreactivity (PSR sort gate)” value was “low polyreactivity”.
With “QVQLVESGGGLVQAGGSLRLSSDASGFIIANNALGWYRQAPVKERELVAAISRSGGRTYYADSVKGRFTISRDNGKKTVYLQMNSLKTEDTAVYYCVADRTDTSNYWGQGTQVTVSS”, the “polyreactivity (PSR sort gate)” value is reported as “high polyreactivity”.
Regarding “QVQLVESGGGLVQAGGSLRLSSAPSGSTYYVYDMGWYRQAPGKERELVAAITSGGSTNNADSVKGRFTISRDNAKNTVYLEMKSLKPVDTAVYYCAAQGRVWDSYGYEYVQEVTRDYWGQGTQVNVSS”, the “polyreactivity (PSR sort gate)” value is “low polyreactivity”.
Take “QVQLVESGGGLVQEGGSLRLICAASGRTFVYNTMGWYRQAPGKERELVAAITRSGDSTYDADSVKGRFTISRDTAKITVYIHMKSLKPDDTGVYYCNAVSNRYWLKDYWGQGTQVTVSS”: the “polyreactivity (PSR sort gate)” value is recorded as “high polyreactivity”.
For “QVQLVESGGGLLQAGGSLRLSCAASGNIFYRYAMGWYRQAPGKERELVAAISGNSGNTYYADSVKGRFTISRDNAKNTVYLQIHSLNPEDTAVYYSAAERRAFGHYSGGQGTQVTVSS” the value was “high polyreactivity”.
Turning to “QVQLVESGGGLVQAGGSLRLSCAASGFTIRSYVMGWYRQAPGKEREFVAAISYRGGGTNYADSVKGRFTISRDNAKNTVYLQMNSLKPEDSAVYYCNAYIVSNEGDYWGQGTQVTVSS”, the “polyreactivity (PSR sort gate)” value is listed as “high polyreactivity”.
Consider “QVQHVESGGGLVQAGGILRLICDASGGIFAANAMGWYRPAPGQERELVAAITSVGSTYADSVKGRFTISRDNAKNTVYLQMNSLKPEDTAVYYCAADTESVIVWYEDDYWGQGTQVTVSS”, for which the “polyreactivity (PSR sort gate)” value is “low polyreactivity”.
For “QVQLVESGGGLVQAGGSLRLSCAASGIIFLSYAMGWYRQAPGKERELVATITRSGGSTYYADSVEGRFTISRDNAKNTVYLQMNSLKPEDTAVYYCARYWRTSGVRMDYWGQGTQVTVSS” the value was “high polyreactivity”; for “QVQLVESGGGLVQAGGSLRLSCAASGRIFYSYAMGWYRQAPGKERELVAAISWSGGRTYYADSVKGRFTISRDNAKNNVYLQMNSLKPEDTAVYYCARRGYYYDYWGQGTQVTVSS”, “high polyreactivity”.
For “QVQLVESGGGLVQAGGSLRLSCAASGYTFGRYAMGWYSQAPGKERELVAAITKSGGRTSYADSVKGRFTISRDNEKNTVYLQMTSLKPEDTAVYYCNKVRFQPYWVVYATGDYWGQGTQVTVSS” the value was “high polyreactivity”; for “QVQLVESGGGLVQAGGSLRLSCSASGYTFAWYAMGWYRQAPGKERELVAAITVSGGSTYYADSVKGRFTISRDNAKNTVYLQMNSLKPEDTAVYYCAADYAPLDLYQVSTVYSSGDYWGQGTQVTVSS”, “low polyreactivity”.
As for “QVQLVESGGGLVQAGGTLRLSCAASGRTFYFYAMGWYRQAPGKERELVAAITSRVGRTYYADSVKGRFTISRDNAKNTVYLQMNSLKPEDTAVYYCAAEGVYRMGYWGQGTQVTVSS”, the “polyreactivity (PSR sort gate)” value is listed as “high polyreactivity”.
For “QDQLGESGGGIVQAGGSLRLSCASSGINFLDKAMGWYRPAQGKETELVAAYADSVKGRFTISRDNAKNTVYLQMNSLSAEDTAVYYCNAGWIRYYGFSIVSYDYWGQGTQVTVSS” the value was “low polyreactivity”; for “QVHLVESGGGLVQAGGSLRLSCAASGRTFNVYAMGWYRQAPGKERELVASISSSDTTNYADSVKGRFTISRDNAKNTVYLQMNSLKPEDTAVYYCAADYTPDLLSKVDYWGQGTQVTVSS”, “low polyreactivity”; for “QVQLVESGGGLVQAGGSLRLSCAASGSIFKLYSMGWSRQAPGKERELVATIRWSGGSTYYADSVKGRFTISRDNAKNTVYLQMNSLKPEDTAVYYCAARRVRPNGYTSSPLDYWGQGTQVTVSS”, “high polyreactivity”.
The same measure for “QVQIVESGGGLVQAGGSLRLSCAASGSIFWFYAMGWSRQAPGKERELVAAITWNGGRTYYADSVKGRFTISRDNAKNTVYLQMNCLKPEDTAVYYCNKVSGYDVDYWGHGTQVTVSS”: “high polyreactivity”; for “QVQLQESGGGLVQAGGSLCLSCAASGTIFFDGDMGWYRQAPGKEREFVAAINPGGSAYYADSVKGRLPLAAITHSVYLQMNSLKPEDTAVYYCAAKLFDVYGYYYWGQGTHVTVSS”: “low polyreactivity”; for “QVQLVESGGGLVQAGGSLRLSCAASGRTFKIYAMGWYRQAPGKERELVAAITWNGDSTHYADSVKGRFTISRDNAKNTVYLQMNSLKPEDTAVYYCNRVGYQSMNYWGQGTQVTVSS”: “low polyreactivity”.
The same measure for “QVQLVESGGGLVQAGGSLRLSCAASGSIFYTYAMGWYRQAPGKERELVADISSRGGSTYYADSVKGRFTISRDNAKNTVYLQMNSLKPEDTAVYYCNAPQGFVWRYSSWGPYDYWGQGTQVTVSS”: “high polyreactivity”; for “QVQLVESGGGLVQAGGSLRLSCADSGSIFQYNTMGWYRQAPGKERELVADINGRGGSTYYADSVKGRFTISRDNAKNTVYLQMNSLKPEDTAVYYCAVEGVSTYLWTSYGYWGQGTQVTVSS”: “low polyreactivity”.
In the case of “QVQLVESGGGLVQAGGSLRLTCAASGLIFVDNAMGWYRQAPGKERELVAAIDSGGSTNYADSVKGRFTISRDNAKNTVYLPMNSLKPEDTAVYYCAAEYVRFYWYTSDYWGQGTQVTVSS”, the “polyreactivity (PSR sort gate)” value is “low polyreactivity”.
On to “QVQLVESGGGLVQAGGSLRLICAASGRTFGRYAMGWYRQAPGKERELVADIDYGGGSTYYADSEKGRFTISRDNAKNTVYLQMNSLKPEDTAVYYCNARRDIGWGYHMDYWGQGTQVTVSS”, for which the “polyreactivity (PSR sort gate)” value is “high polyreactivity”.
For “QVQLVESGGGLVQAGGSLRLSCAASGSIFTPNAMGWYRQAPGKERELVAAISSSSDRTYYADSVKGRFTLSRDNAKNTVYLQMNSLKPEDTAVYYCAAYAQKRYYWGQGTQVTVSS”, the “polyreactivity (PSR sort gate)” value is on record as “high polyreactivity”.
“QVQLVESGGGLVQAGGSLRLSCAASGRTFYLYAMVCYRQAPGKERELVAAITNRGGSTYYADSVKGRFTISRDNAKNTVYLQMNSLKPEDTAVYYCAAQVSVYRGGYGYWGQGTQVTVSS”: the “polyreactivity (PSR sort gate)” value is “high polyreactivity”.
The same measure for “QVQLVESGGGLVQAGGSLRLSCAATGRTSTYYPMGWYRQAPGKERELVAAIRSGTITNYADSVKGRFTISRDNAKNTVYLQMNSLKPEDSAVYYCAAKYRYSTYHRGSFNYWGQGTQVTVSS”: “high polyreactivity”; for “QVQLVESGGGLVQAGGSLRLSCPASGSIFSLNAMGWSRQAPGKERELVAASGGGSTYYADSVKGRFTISRDNAKNTVYLQMNSLKPEDTAVYYCAARVLTDELDYWGQGTQVTVSS”: “low polyreactivity”; for “QVQLVESGGGLVQAGGSLRLSCAASGRIFPSNAMGWYRQAPGKERELVAAISVSGGSTYYADSVKGRFTISRDNAKNTVYLQMNSLKPEDTAVYYCAVRAWDPYTGKSDYWGQGTQVTVSS”: “low polyreactivity”.
Take “QVQLVESGGGLVQAGGSLRLSCAASGSIFPYNAMGWYRQAPGKERELVAAIRFGGGSTYYSDSVKGRFTISRDNAKNTVYLQMNSLKPEDTAVYYCAAQVLQSAYLPFRFGYYYWGLGTQVTVSS”: the “polyreactivity (PSR sort gate)” value is recorded as “low polyreactivity”.
“QVQLVESGGGLVQAGGSLRLSCAASGSIIYFYAMGWYRPAPGKERELVAAISITSASTYYADSVKGRFTISRDNAKNTVYLQMNSLKPEDTAVYYCAAEYYYVDWIYDYWGQGTQVTVSS”: the “polyreactivity (PSR sort gate)” value was “high polyreactivity”.
Take “QVQLVESGGGLVQAGGSLRLSCAASGLTFYYNAMGWYRQAPGKERELVAAISFSGGRTYYADSVKGRFTISRDNAKNTVYLQMNSLKPEDTAVYYCAADWVRNWYTSGSWGQGTQVTVSS”: the “polyreactivity (PSR sort gate)” value is recorded as “high polyreactivity”.
The same measure for “QVQLVESGGGLVQAGGSLRLSCAASGSIFTHNAMGWYRQAPGKERELVATISYGGGRTYYADSVKGRFTISRDNAKNTVYLQMNSLKPEDTAVYYCAADVYWYAYVWRKYGYWGQGTQVTVSS”: “low polyreactivity”; for “QVQLVESVGGLVQAGGSLRLSCAASGFTFVGNTMGWYRQAPGKERELVAAIRGRDGRTYYADSVKGRFTISRDNAKNTVYLQMNSLKPEDTAVYYCNVDVKYSVRSEFDFWGQGTQVTVSS”: “low polyreactivity”.
For “QVQLVESGGGLVQAGGSLRLSCAASGNIFYYNAMGWYRQAPGKVRELVAAITRSAGSTYYADSVKGRFPISRDNAKNTVYLQMNSLKPEDTAVYYCAATYSDLGYRYYSLGQGTQVTVSS” the value was “high polyreactivity”.
For “QDQLVESGVGLVQAGVSLRLSCAASGSIFESYAMGWSSQAPGKESELVAAIDYDDGSTYYADSVKGRFTISRDNAKNTVYLQMNSLKPEDTAVYYCAAKPTTYYGISDYWGQGTQVTVAS” the value was “high polyreactivity”.
In the case of “QVQVVESGGGLVQAGGSLRLSCAASGFIIKDNAMGWYRQAPGKERELVAAITASGGRTYYADSVKGRFTISRDNAKNTVYLQMNSLKPEDTAVYYCAKRVKRPSESYNYNYYYWGQGTQVTVSS”, the “polyreactivity (PSR sort gate)” value is recorded as “high polyreactivity”.

Values taken from the nanobody polyreactivity screen of Harvey et al. (2022).
